In publication PMC10855774, “Role of Spexin in White Adipose Tissue Thermogenesis under Basal and Cold-Stimulated Conditions” (International Journal of Molecular Sciences, 2024):

Tests used:
Type in all cases: in vivo, mice
[1] = Plasma SPX levels (ELISA) after SPX injection
Protocol: Circulating glucose (Glu) and triglyceride (Tg) levels were measured using commercial kits (Wiener Lab., Rosario, Argentina). Plasma SPX was measured using a commercial ELISA kit (SPX: Phoenix pharmaceutical EK-023-81).
Supplementary figure 1. SPX levels (ng/ml, EIA Phoe nix pharmaceutical) after intraperitoneal injec tion with SPX (29 µg/kg). or Vehicle in mic e Different time points we r e evaluated after ip. Injections (10, 20, 60, 180, 360 minutes).
Supplementary Figure 2. ucp1 (a), pgc1α (b) and cox8b (c) mRNA expression in B AT. In all case s, t wo -wa y A N O VA wa s performed for factor (S or C) and interaction (S x C) analysis and deta iled below the graph only when s ig n if ica nt .. When interaction is statist icall y s ig n if ica nt , group to gr oup comparison wa s performed by Bonferroni test. ++++ P<0.0001 vs. CTR and ***P<0.001 vs. CTR-C (n=4- 6 m ice per group). […]

pgc1α = pgc1α mRNA expression in AT depots (qRT-PCR)
Protocol: (§1) Normal adult male C57BL/6 mice (four months of age) were kept in a temperature-controlled environment (20–22 °C and a fixed 12 h light/12 h dark cycle; lights on at 07:00 h) and fed ad libitum with Purina commercial rat/mouse chow (Ganave, Buenos Aires, Argentina, L0723/1). Mice were injected with SPX or PBS (29 µg/kg/day, Tocris, Bristol, UK) for ten days (the SPX and CTR groups, respectively). On the third day of the protocol, each group was subdivided into two other groups: one exposed to cold (4 °C, CTR-C and SPX-C, n = 12 mice for each group) and another one housed at RT (CTR and SPX, n = 15 mice for each group) (Figure 1). Food intake and body weight were measured every day. On the experimental day (day 10), the mice were euthanized under non-fasting conditions (08:00 to 09:00 h), and their trunk blood was collected; plasma samples were then frozen (–80 °C) until the metabolite measurement. Inguinal AT (IAT, subcutaneous depot), epididymal AT (EAT, visceral depot), and brown AT (BAT, subcutaneous depot) were aseptically dissected and weighed. These depots were kept at –80 °C for further procedures. Animals were euthanized according to protocols for animal use, in agreement with the NIH guidelines for the care and use of experimental animals. All experiments were approved by our Institutional Animal Care Committee (Approval code: 6NE-2023).
(§2) Total RNA was isolated from cells by the Trizol extraction method (Invitrogen, Life Technology, Waltham, MA, USA) and reverse-transcribed using random primers (250 ng) and RevertAid Reverse Transcriptase (200 U/µL, Thermo Scientific, Waltham, MA, USA). […] The expression levels were analyzed for β-actin (βactin, […] gene), Uncoupling Protein 1 (ucp1), proliferator-activated receptor gamma coactivator-1 alpha (pgc1α), cytochrome-c oxidase subunit 8b (cox8b), galanin receptors 2 and 3 (galr2 and galr3, respectively), and Spexin (spx). […] The relative changes in the expression level of each gene (ΔΔCt) were calculated by the ΔCt method.

galr2 = galr2 mRNA expression in AT depots (qRT-PCR); conditions: RT and cold
Protocol: as §1, §2

B1: Spexin (peptide, UniProt Q9BT56 27-116, looked up)
Spexin: APQRLLERRNWTPQAMLYLKGAQGRRFISDQSRRKDLSDRPLPERRSPNPQLLTIPEAATILLASLQKSPEDEEKNFDQTRFLEDSLLNW
modifications: Spexin
notes: novel adipokine, a peptide of 14 amino acids of the galanin family; purchased from Tocris
plasma SPX levels at end of protocol ([1]; day 10 of SPX 29 µg/kg/day, RT or cold, ELISA, n = 6–7): did not differ between groups | plasma SPX levels 1 h after SPX injection vs. basal ([1]; mice, single ip. injection SPX 29 µg/kg, 1 h, plasma ELISA): two-fold higher than basal ones | plasma SPX levels 3 h after SPX injection vs. basal ([1]; mice, single ip. injection SPX 29 µg/kg, 3 h, plasma ELISA): back to basal levels | SPX half-life in plasma ([1]; mice, single ip. injection SPX 29 µg/kg, plasma ELISA at 10, 20, 60, 180, 360 minutes): short | pgc1α mRNA expression in BAT (pgc1α; RT and cold, Supplementary Figure S2b): no changes were observed | pgc1α mRNA expression in EAT (pgc1α; cold conditions, C p < 0.0001): increased in EAT for both the control and treated groups | pgc1α mRNA expression in IAT (pgc1α; cold, SPX-C vs. CTR-C, p < 0.001): inhibited due to SPX in cold conditions | galr2 mRNA expression in EAT (galr2; S p < 0.01): decreased in both groups treated with SPX | galr2 mRNA expression in IAT (galr2; S p < 0.01): decreased in both groups treated with SPX | galr2 mRNA expression in BAT (galr2; Supplementary Figure S3): no differences were found
